# Laboratory results published in US20190382504A1.
# Assays:
# Experiment in all cases: FACS, peptide-pulsed T2 cells
# [1] = target: ESO157 A6 peptide (…)/HLA-A*02:01 complex on T2 cells (human)
# [2] = target: ESO157 A3 peptide (…)/HLA-A*02:01 complex on T2 cells (human)
# [3] = target: ESO157 A1 peptide (…)/HLA-A*02:01 complex on T2 cells (human)
# [4] = target: ESO157 A5 peptide (…)/HLA-A*02:01 complex on T2 cells (human)
# [5] = target: ESO157 A7 peptide (…)/HLA-A*02:01 complex on T2 cells (human)
# [6] = target: HLA-A*02:01 on T2 cells without peptide loading (human)
# [7] = target: ESO157 A4 peptide (…)/HLA-A*02:01 complex on T2 cells (human)
# [8] = target: ESO157 wild type peptide (…)/HLA-A*02:01 complex on cells (human)
# [9] = target: ESO157 A8 peptide (…)/HLA-A*02:01 complex on T2 cells (human)
Substance,MFI [1],MFI [2],MFI [3],MFI [4],MFI [5],MFI [6],MFI [7],MFI [8],MFI [9]
KO7 helper phage,91,100,92,101,84,97,97,136,94
antibody BB7.2,55800,66100,67000,59000,72900,53100,60300,76000,75000
